Assay results reported in patent US20070116694A1, “Inhibitor of interaction of granzyme b with golgin-160” (Daiichi Pharmaceutical Co., Ltd., priority 2003, published 2007).

Molecular target: T1, Granzyme B (Homo sapiens, UniProt P10144)
T1 construct: purchased Calbiochem 368042
Experiment: in vitro protease assay (decomposition by Granzyme B)
Format: biochemical
Conditions: Granzyme B 0.05 μg, substrate protein 0.2 μg, 37° C. for 2 hours, SDS-PAGE, Coomassie Brilliant Blue
Method: An in vitro protease assay was carried out to confirm in an experiment whether or not Golgin-160 is decomposed by Granzyme B. Granzyme B, Human, cell culture-derived (Calbiochem, Catalog No. 368042) was purchased, and this product was used as Granzyme B. Granzyme B (0.05 μg) was added to 10 μl of a cleavage buffer containing TRX-Golgin-160, procaspase-3, or TRX-LAG 3 (0.2 μg each) (wherein the buffer consisted of 50 mM Hepes-KOH (pH 7.4), 2 mM EDTA, 1% NP-40, 0.1 M NaCl, and 10 mM DTT) (Kam C. M., Huding D., et al., “Granzymes (lymphocyte serine proteases): characterization with natural and synthetic substrates and inhibitors” in Biochim. Biophys. Acta, 1477:307-323 (2000)). The obtained mixture was incubated at 37° C. for 2 hours. After completion of the incubation, 2×SDS sample buffer (125 mM Tris-HCl (pH 6.8), 4% (w/v) sodium dodecyl sulfate, 20% (v/v) glycerol, 0.01% (w/v) bromophenol blue, and 20% (v/v) 2-mercaptoethanol) was added at an equivalent amount to each reaction solution, and the obtained mixture was heated for 5 minutes. Thereafter, the obtained reaction mixture was separated by SDS-PAGE and then stained with Coomassie Brilliant Blue. Thus, a protein and a decomposition product thereof were observed.

T1 sequence (P10144 21-247): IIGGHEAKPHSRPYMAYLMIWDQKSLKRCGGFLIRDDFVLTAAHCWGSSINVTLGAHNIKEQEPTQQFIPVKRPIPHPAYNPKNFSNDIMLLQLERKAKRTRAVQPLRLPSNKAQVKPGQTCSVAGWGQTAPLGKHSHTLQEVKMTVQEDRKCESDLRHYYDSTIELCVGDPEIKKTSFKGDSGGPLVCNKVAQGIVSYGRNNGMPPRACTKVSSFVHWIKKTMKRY

B1: Procaspase-3: Recombinant Human procaspase-3 (MBL/BioVision), positive control in the in vitro protease assay of Granzyme B (protein, UniProt P42574 1-277, looked up)
pro-form: MENTENSVDSKSIKNLEPKIIHGSESMDSGISLDNSYKMDYPEMGLCIIINNKNFHKSTGMTSRSGTDVDAANLRETFRNLKYEVRNKNDLTREEIVELMRDVSKEDHSKRSSFVCVLLSHGEEGIIFGTNGPVDLKKITNFFRGDRCRSLTGKPKLFIIQACRGTELDCGIETDSGVDDDMACHKIPVEADFLYAYSTAPGYYSWRNSKDGSWFIQSLCAMLKQYADKLEFMHILTRVNRKVATEFESFSFDATFHAKKQIPCIVSMLTKELYFYH
modifications: pro-form
notes: Recombinant Human procaspase-3 (MBL/BioVision), positive control in the in vitro protease assay of Granzyme B
- decomposition by Granzyme B: decomposed
